The source of these data is US20260049134A1 (UNIVERSITY OF FLORIDA RESEARCH FOUNDATION, published 2026).

One assay addresses T1, SELL (L-Selectin).
T1 construct: coated protein in the ELISA; also called SELL-Fc-His (R&D Systems)
T1 chain: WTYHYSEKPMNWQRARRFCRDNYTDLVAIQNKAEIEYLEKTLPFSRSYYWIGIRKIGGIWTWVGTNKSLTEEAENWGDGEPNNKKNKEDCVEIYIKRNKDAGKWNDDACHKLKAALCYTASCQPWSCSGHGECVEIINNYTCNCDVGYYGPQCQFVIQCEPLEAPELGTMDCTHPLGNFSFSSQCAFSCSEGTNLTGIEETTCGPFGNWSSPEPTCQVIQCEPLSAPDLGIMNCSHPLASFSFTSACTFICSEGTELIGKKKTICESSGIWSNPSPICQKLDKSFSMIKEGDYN
Description: ELISA on coated SELL-Fc-His. The protocol:
(§1) Recombinant purified ECDs (50-150 ng) of each putative target protein were coated, incubated with 150 ng of the indicated primary antibody, and binding was detected using a peroxidase-conjugated anti-human Fab secondary antibody. Heatmap represents averages of technical triplicates. (8B) Target validation via siRNA knockdown. H929 cells were transfected with siRNA pools targeting the putative antibody targets ICAM1, CADM1, and PTPRG. Cells were then subjected to cognate IgG binding analysis via flow cytometry. (NT, non-targeting siRNA).
(§2) ELISA ELISA was conducted as described previously. Briefly, 50-150 ng of antigen was coated overnight in half-area 96-well plates at 4° C., blocked with 3% BSA at 37° C. for 1 h, and 150 ng of chimeric rabbit/human IgG1 was added, incubating for 2 h at 37° C. […] After incubating at 37° C. for 15 min-1 h (depending on intensity of controls), data were acquired using a SpectraMax M5 plate reader (Molecular Devices).
Background: An ELISA detects its analyte on a solid surface through an enzyme-linked reagent.

For another assay, the target named is T2, SLAMF7.
T2 construct: coated protein in the ELISA; also called SLAMF7-StrepTag
T2 chain: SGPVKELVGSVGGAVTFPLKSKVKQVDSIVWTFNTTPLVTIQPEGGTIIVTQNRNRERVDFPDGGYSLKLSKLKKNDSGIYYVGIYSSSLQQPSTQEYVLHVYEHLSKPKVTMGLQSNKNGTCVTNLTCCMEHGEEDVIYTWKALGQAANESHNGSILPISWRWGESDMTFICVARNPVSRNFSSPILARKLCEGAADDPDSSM
Description: ELISA on coated SLAMF7-StrepTag. On the procedure:
as §1, §2

Another assay has as its target T3, PTPRG on U266 cells (human, UniProt P23470).
T3 construct: endogenous on U266 multiple myeloma cells; also called HW-1 target on U266
Description: flow cytometry, IgG1 on U266 cells. On the procedure: Staining protocol. Cells were harvested (5×10⁴ cells per sample), washed once with phosphate-buffered saline (PBS) at RT, and a second time with ice-cold FACS buffer (PBS, 0.5% BSA, 2 mM EDTA, 0.1% NaN₃). Cells were stained in 50 μL of primary antibody for 30 min on ice, washed twice with 100 μL FACS buffer, stained with 50 μL of diluted secondary antibody, washed two more times in FACS, and then resuspended in 50 μL FACS buffer. Samples were acquired on an Accuri C6 Plus or a BD FACSCanto II flow cytometer (both from BD Biosciences). Data were analyzed using FlowJo version 10 software. Primary antibodies: Fab (10 μg/mL), IgG1 (0.1 to 50 μg/mL), or 25 μL polyclonal Fabs from periplasmic extracts. Polyclonal Fabs were produced by diluting bacterial stocks by a factor of 100 in autoinduction media and incubating overnight to induce expression as previously described. […] Viability stains: DAPI (Cell Signaling Technology) or SYTOX AADvanced Dead Cell Stain (Thermo Fisher Scientific). Labeling: The panel of chimeric rabbit/human IgG1s was labeled using the Alexa Fluor 647 Labeling Kit (Thermo Fisher Scientific, #A20173) to facilitate single-step staining. Competition: Unlabeled IgG1s were added at saturating concentrations of 60 μg/mL to block the target receptors, incubating on ice for 30 min, followed by the addition of an equal volume of the Alexa Fluor 647 labeled antibody at 2 μg/mL, and the mixture was incubated on ice for another 30 min.
In general terms: A flow cytometer gives signals particle by particle.

T3 sequence (P23470 20-1445 limits assumed): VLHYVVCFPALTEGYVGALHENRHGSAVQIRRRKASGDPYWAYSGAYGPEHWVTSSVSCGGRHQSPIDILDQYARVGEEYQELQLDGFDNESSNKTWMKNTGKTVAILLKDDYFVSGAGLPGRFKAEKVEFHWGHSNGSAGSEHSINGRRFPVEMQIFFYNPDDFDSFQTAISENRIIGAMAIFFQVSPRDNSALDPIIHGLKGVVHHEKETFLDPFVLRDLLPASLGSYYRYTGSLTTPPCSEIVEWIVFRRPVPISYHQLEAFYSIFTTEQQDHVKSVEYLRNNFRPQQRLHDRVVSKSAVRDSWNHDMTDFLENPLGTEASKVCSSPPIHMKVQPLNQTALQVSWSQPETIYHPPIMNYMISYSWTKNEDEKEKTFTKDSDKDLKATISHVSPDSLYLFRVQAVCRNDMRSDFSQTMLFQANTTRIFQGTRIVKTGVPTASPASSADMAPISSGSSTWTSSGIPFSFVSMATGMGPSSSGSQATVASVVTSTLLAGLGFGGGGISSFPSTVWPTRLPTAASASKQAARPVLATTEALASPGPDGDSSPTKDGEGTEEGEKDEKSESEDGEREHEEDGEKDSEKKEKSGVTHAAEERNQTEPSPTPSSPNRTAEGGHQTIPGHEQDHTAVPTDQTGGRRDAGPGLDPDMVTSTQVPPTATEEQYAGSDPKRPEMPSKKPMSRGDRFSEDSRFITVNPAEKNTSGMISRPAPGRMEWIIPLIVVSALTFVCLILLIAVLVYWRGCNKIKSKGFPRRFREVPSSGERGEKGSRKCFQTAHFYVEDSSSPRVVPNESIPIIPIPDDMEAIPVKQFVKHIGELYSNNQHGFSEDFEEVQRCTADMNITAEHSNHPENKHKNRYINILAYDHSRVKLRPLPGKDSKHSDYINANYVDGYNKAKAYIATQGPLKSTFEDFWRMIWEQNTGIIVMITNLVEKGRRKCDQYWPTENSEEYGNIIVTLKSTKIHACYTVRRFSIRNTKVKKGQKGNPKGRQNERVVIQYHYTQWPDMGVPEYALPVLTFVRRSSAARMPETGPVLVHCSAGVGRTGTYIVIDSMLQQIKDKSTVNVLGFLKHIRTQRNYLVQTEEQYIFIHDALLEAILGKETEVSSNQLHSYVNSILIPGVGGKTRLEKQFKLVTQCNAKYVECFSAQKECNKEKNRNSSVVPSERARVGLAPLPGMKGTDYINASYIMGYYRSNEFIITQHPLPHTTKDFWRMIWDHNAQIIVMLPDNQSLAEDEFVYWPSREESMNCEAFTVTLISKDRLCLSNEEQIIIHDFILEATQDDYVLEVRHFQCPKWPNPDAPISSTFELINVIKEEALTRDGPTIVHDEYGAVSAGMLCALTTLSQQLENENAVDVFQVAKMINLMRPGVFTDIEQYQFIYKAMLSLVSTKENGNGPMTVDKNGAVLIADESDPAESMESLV

B1: HW-42 chimeric rabbit-human IgG1 LA/LA/PG (antibody, V domains shown)
VH: QSVKESEGGLFKPADTLTLTCTVSGFSLSSNEISWVRQAPGEGLEYIGIIDTGGRAYYAVWARSRSTITRNTNLNTVTLKMTSLTAADTATYFCARGGVDTEWYAFSSWGPGTLVTVPS
VL: SFVLTQPASVQVNLGQTVSLTCTADTLSRRYASWYQQKPGQAPVLLIFRDTSRPSGVPDRFSGSSSGDTATLTISGAQAGDEADYYCATSDGSGSNYQYVFGGGTQLTVTG
notes: Fc-silenced (L234A/L235A/P329G) IgG1, lambda; Alexa Fluor 647-labeled in single-step flow cytometry; Cluster C-1
As to B1, the binding result with SELL (L-Selectin) and in the assay with SLAMF7 was “no binding (tested: 150 ng IgG1 per well)” each time. Also, the “antibody-bound positive cells (%)” value with PTPRG on U266 cells was found to be 64.5%.

B2: HW-113 chimeric rabbit-human IgG1 LA/LA/PG (antibody, V domains shown)
VH: QKQLVESGGGLVQPGGSLTLTCTVSGFSLNKYYMGWFRQAPGKGLEWIGVISRSGDTYYSSWAKGRFTISKASTTVDLRITSPTTEDTATYFCARDASSPGFHGDRLDLWGQGTLVTVSS
VL: SFVLTQPASVQVNLGQTVSLTCTADTLSRSYASWYQQKPGQAPVLLIYRDTSRPSGVPDRFSGSSSGNTATLTISGAQAGDEADYYCATSDGIGSNYLWVFGGGTQLTVTG
notes: Fc-silenced (L234A/L235A/P329G) IgG1, lambda; Alexa Fluor 647-labeled in single-step flow cytometry
Turning to B2, the binding result in the assay with SELL (L-Selectin) and in the assay with SLAMF7 was “no binding (tested: 150 ng IgG1 per well)” in each case.

B3: HW-25 chimeric rabbit-human IgG1 LA/LA/PG (antibody, V domains shown)
VH: QSLEESGGRLVTPGTPLTLTCTVSGFSLSSYAMGWVRQAPGKGLEWIGIIDSRGSTYYATWAKGRFTISKTSTTVDLKITSPTTEDTATYFCAREDSYYYDSFNLWGPGTLVTVSS
VL: SFVLTQPASVQVNLGQTVSLTCTADTLSRRYASWYQQKPGQAPVLLIYRDTSRPSGVPDRFSGSSSGNTATLTISGAQAGDEADYYCATSDGSGSSYQCVFGGGTQLTVTG
notes: as for B1
Consider B3, for which the binding result in the assay with SELL (L-Selectin) and with SLAMF7 was “no binding (tested: 150 ng IgG1 per well)” each time. Besides, in the assay with PTPRG on U266 cells, the “antibody-bound positive cells (%)” value amounted to 69.6%.

B4: HW-101 chimeric rabbit-human IgG1 LA/LA/PG (antibody, V domains shown)
VH: QEQLVESGGRLVTPGTPLTLTCKASGFSLGKYDMSWVRQAPGKGLEWIGTIYAGSGSTWYASWAKGRFTISKTSTTVDLKMTSLTTEDTATYFCARDFLGVNSIWGPGTLVTISS
VL: SFVLTQPASVQVNLGQTVSLTCTADTLSRSYASWYQQKPDQAPVLLIHRDTSRPSGVPDRFSGSNSGNTATLTISGAQAGDEADYYCATSDGSGSNFHFVFGGGTQLTVTG
notes: Fc-silenced (L234A/L235A/P329G) IgG1, lambda; Alexa Fluor 647-labeled in single-step flow cytometry; Cluster C-97
For the molecule B4, the binding result with SELL (L-Selectin) and with SLAMF7 was “no binding (tested: 150 ng IgG1 per well)” each time.

B5: HW-1 chimeric rabbit-human IgG1 LA/LA/PG (antibody, V domains shown)
VH: QSLEESGGGLFKPTDTLTLTCTASGFSLGSSYAISWVRQAPGKELEWIGTIDSGRAYYARWAKSRSTITRNTNENTVTLKMTSLTAADTATYFCARDLIPTYSQDIWGPGTLVTISS
VL: SFVLTQPASVQVNLGQTVSLTCTADTLSRRYASWYQQKPGQAPVLLIYRDTSRPSGVPDRFSGSSSGNTATLTISGAQAGDEADYYCATSDGSGNSYQYVFGGGTQLTVTS
notes: Fc-silenced (L234A/L235A/P329G) IgG1, lambda; Alexa Fluor 647-labeled in single-step flow cytometry; Prototype of cluster C-1
For the molecule B5, the binding result in the assay with SELL (L-Selectin) and with SLAMF7 was “no binding (tested: 150 ng IgG1 per well)” in each case. Besides, the “antibody-bound positive cells (%)” value with PTPRG on U266 cells stood at 84.4%.

B6: HW-17 chimeric rabbit-human IgG1 LA/LA/PG (antibody, V domains shown)
VH: QSLGESRGRLVTPDETLTLTCTVSGIDLSSNAMSWVRQAPGEGLEWIGTINTGGRAYYASWAKGRFTISRTSTTVDLKMTSLTTEDTATYFCARERYSDGRAYDIWGPGTLVTISS
VL: SFVLTQPASVQVNLGQTVSLTCTADTLSRRYASWYQQKPGQAPVLLIYTDSNRPSGIPDRFSGSSSGNTATLTISGAQAGDEADYYCATDDGSGSIYQYVFGGGTQLTVTG
notes: as for B1
As to B6, the binding result with SELL (L-Selectin) and with SLAMF7 was “no binding (tested: 150 ng IgG1 per well)” each time. Moreover, the “antibody-bound positive cells (%)” value with PTPRG on U266 cells amounted to 85.2%.

B7: HW-70 chimeric rabbit-human IgG1 LA/LA/PG (antibody, V domains shown)
VH: QSLEESGGRLVTPGTPLTLTCTVSGFSLSSNAMSWVRQAPGKGLEWIGTIDGYGYTYYASWAKGRFTVSKTSTTVDLKITSPTTEDTATYFCAREIYLGSNFWGPGTLVTISS
VL: SFVLTQPASVQVNLGQTVSLTCTADTLSRRYASWYQQKPGQAPVLLIYRDTSRPSGVPDRFSGSSSGNTATLTISGAQAGDEADYYCATADGSGSSYQFVFGGGTQLTVTG
notes: as for B1
Turning to B7, the binding result with SELL (L-Selectin) and with SLAMF7 was “no binding (tested: 150 ng IgG1 per well)” each time. Further, the “antibody-bound positive cells (%)” value with PTPRG on U266 cells amounted to 76%.

B8: HW-97 chimeric rabbit-human IgG1 LA/LA/PG (antibody, V domains shown)
VH: QKQLVESGGRLVTPGTPLTLTCTVTGIDLSSHGMSWVRQAPGKGLEWIGVIYPSGSTWYASWARGRFTISKTSTTVDLKMTSLTTEDTATHFCARGDVGGADNNIWGPGTLVTVSS
VL: SFVLTQPASVQVDLGQTVSLTCTAETLSRSYASWYQQKPGQAPVLLIYRDTSRPSGVPDRFSGSSSGNTATLTISGAQAGDEADYYCATSDGSGSSYQYVFGGGTQLTVTG
notes: Fc-silenced (L234A/L235A/P329G) IgG1, lambda; Alexa Fluor 647-labeled in single-step flow cytometry; Prototype of cluster C-97
As to B8, the binding result with SELL (L-Selectin) and with SLAMF7 was “no binding (tested: 150 ng IgG1 per well)” throughout.

B9: TH9-0022 (antibody, human IgG1, kappa, L234A L235A, V domains shown)
VH: QSLEESGGRLVTPGTPLTLTCTVSGFSLSSYAMNWVRQAPGKGLEWIGIINSYGSTYYASWAKGRFTISKTSTTVDLKITSPTTEDTATYFCARVTYDSYGYGYAPYGMDLWGPGTLVTVSS
VL: LVMTQTPSSTSNAVGGTVTIKCQASQSIGNVLAWYQQKPGQPPKLLIYAASTLASGVPSRVGGSRSGTEYTLTISGVQREDAATYYCLGSDSDSDIAFGGGTELEILR
notes: also called TH9-022; negative control
As for B9, the binding result with SELL (L-Selectin) and with SLAMF7 was “no binding (tested: 150 ng IgG1 per well)” throughout.

B10: TH9-0022 (antibody, human IgG1, kappa, L234A L235A, V domains shown)
VH: QSLEESGGRLVTPGTPLTLTCTVSGFSLSSYAMNWVRQAPGKGLEWIGIINSYGSTYYASWAKGRFTISKTSTTVDLKITSPTTEDTATYFCARVTYDSYGYGYAPYGMDLWGPGTLVTVSS
VL: LVMTQTPSSTSNAVGGTVTIKCQASQSIGNVLAWYQQKPGQPPKLLIYAASTLASGVPSRVGGSRSGTEYTLTISGVQREDAATYYCLGSDSDSDIAFGGGTELEILR
notes: also called TH9-022; negative control IgG1
Regarding B10, the “antibody-bound positive cells (%)” value with PTPRG on U266 cells came to 6.5%.
